Experimental data published in patent US20250034594A1, “RNA-GUIDED GENOME RECOMBINEERING AT KILOBASE SCALE” (THE BOARD OF TRUSTEES OF THE LELAND STANFORD JUNIOR …, priority 2021, published 2025).

Legend:
Format in all cases: cell-based
[1] = system: gene editing with Cas9 and dCas9; experiment: Screen of 322 new SSAP proteins, activity across all experiments (Cas9 and dCas9, Table 5); design: scale not given here
Procedure, shortened: (§1)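 Editing screen of 322 newly identified, synthesized SSAPs, each co-used with Cas9 and with dCas9.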

[2] = system: gene editing with dCas9; experiment: Screen of 322 new SSAP proteins, gene editing activity with dCas9 (Table 5); design: dCas9 with SSAP activity: scale not given here
Procedure, shortened: as §1

[3] = system: gene editing with Cas9; experiment: Screen of 322 new SSAP proteins, gene editing activity with Cas9 (Table 5); design: Cas9 with SSAP activity: scale not given here
Procedure, shortened: as §1

Molecule	Activity across all experiments [1]	dCas9 with SSAP activity [2]	dCas9 with SSAP activity (normalized) [2]	Cas9 with SSAP activity [3]	Cas9 with SSAP activity (normalized) [3]
SSAP_104: SEQ ID NO: 273; Salinicoccus albus (protein, listed as Salinicoccus albus) STNESLKNQVATNQKNEVSNGNKPKTIGDYIDQMAPAMAQALPKHMSVERMTRMATTVIRTTPQLKEADVASLLGAVMQSAQLGLEPGPMGHCYFLPFKNNKKGTTEVTFIIGYKGMIDLARRSGHISTIYAHAVYENDEFEYELGLHADLKHKPSEDERGAFKGAYAVAHFKDGGYQFEYMPKSDIDKRRSRSKAGNSNYSPWATDYEEMAKKTVIRHMWKYLPVSVEMQQAVAHDEGTGKDIKDVTPDEDSFVDMPEYIADVPAEGEGE	−3.455	−2.685	−0.421	−4.226	−0.744
SSAP_98: SEQ ID NO: 267; Pseudomonas fluorescens (protein, listed as Pseudomonas fluorescens) NSTAETATPFSSQDLEKTQPTKAQSKTGSLASLLASPKMKSQFAAALPKHMTPERMARIVTTEIRKNPELVKCEQHSFLGAVIQCAQLGLEPGNTLGHAYILPYGKQAQLIIGYRGMIDLARRSGQIISISARTVREGDYFEYEFGLDENLIHRPVETTQPGAVTHVYAVARLKDGGRQFEVMSRAQIEEVRVQSKAAKSGPWVTHWEEMAKKTVIRRVFKYLPVSVEIQRAVMLDEKAEAGVCQENECVFDGDFEVITDTEE	−0.971	−2.696	−0.444	0.754	0.207
SSAP_64: SEQ ID NO: 233 (protein) SELQQAAQGQQSNNPVSFIYSHAKDIQNVLTKGTDMDRWLQMARLAVMRDQNLVASAKRDPGSLMQALLDCAEKGHVPGTEDYYLVPRKGGIQGMESWKGIAKRIMRSGRYQSIVNEVVYEGETFEFNPNTMDRPVHNINYMTRTSGKPVMSYAYALDHDGKPSSVAIADPRYIAKVKKNSRGSVWEDWDEQMYRKTAVKMLQDYVDTSSVDRRDVSTVQVDDANVIDVDDTFTAREAGE	−0.583	−2.755	−1.023	1.588	1.090
SSAP_154: SEQ ID NO: 323; Corynebacterium urealyticum (protein, listed as Corynebacterium urealyticum) AKNLEARMQQSTNAPARADKPLSLPDQIRQMEDQFRLAMPKGAEATQLVRDALTCLRQTPQLAQCTPASVLGGLMTCAQLGLRPGVLGHAYLIPFNDRRSGNSVAQLVIGYQGLVELAHRSGQIKALIARTVYENDHFDVDYGLEDKLVHKPHMGADKGNPVAYYAVVKFTTGGHAFYVMSHPEMLQYRDKNAKSPKRGPWVDNFEAMAHKTCVRQLAKWMPKSTEFSQALATDESIRLDVTPDAINYPDHPAEGEVIDGEVEQDGGQQ	−1.758	−2.710	−0.380	−0.806	−0.733
SSAP_218: SEQ ID NO: 387; Streptococcus lutetiensis (protein, listed as Streptococcus lutetiensis) ANQLQMSHKDFFNRPAVKNKFSEVVSGKSDQFITSLLSVVNNNKLLSKADNNSILNAAMKAATLNLPIEPSLGSAYIVPFKGQAQFQLGYKGLIELAQRSGQYKSINAGVVYKAQFKSYDPLFETLDLDFNQPQDEVIGYFACFELLNGFRKITYWTREEVYNHGKRFSKSFNNGPWKTDFDAMAKKTLLKSIIGTYGPKSVDMQEAITDDNKTEYEKAEPIDVTPQEENLTDLIGETPQEELPIANPETGEIQEEQTALFNQLGDLTDD	−4.836	−2.770	−0.443	−6.903	−1.680
